Results: patent US20050037969A1 (ARBOR VITA, published 2005)
Ends that are not written are not given here. * marks the point of attachment. Biotin = O=C1N[C@H]2[C@H](CS[C@H]2CCCCC(=O)*)N1

T1: ConEn PDZ-GST fusion protein (Homo sapiens (Human), UniProt Q969H4 193-287)
T1 construct: The label ConEn is not explained in the excerpts
T1 sequence: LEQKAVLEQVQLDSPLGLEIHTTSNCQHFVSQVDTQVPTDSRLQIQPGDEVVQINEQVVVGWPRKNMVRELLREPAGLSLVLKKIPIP

T2: GST-TAX-IP2 PDZ domain fusion protein (human, UniProt O14908 129-216)
T2 construct: also called TAX-1P2; TAX2; not shown: glutathione S-transferase encoded by vector pGEX-3X (Pharmacia)
T2 chain: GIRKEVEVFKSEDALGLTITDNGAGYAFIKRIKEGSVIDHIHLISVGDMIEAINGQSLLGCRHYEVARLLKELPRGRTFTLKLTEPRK

T3: GST-cytohesin binding protein PDZ domain fusion protein (Homo sapiens (Human), UniProt O60759 74-165)
T3 construct: also called CBP; not shown: glutathione S-transferase encoded by vector pGEX-3X (Pharmacia)
T3 sequence: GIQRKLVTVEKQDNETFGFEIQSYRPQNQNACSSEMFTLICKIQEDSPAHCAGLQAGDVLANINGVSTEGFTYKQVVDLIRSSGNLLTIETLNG

T4: GST-TAX-IP40 PDZ domain fusion protein (human, UniProt Q6B4M5 150-252 (rat entry))
T4 construct: also called TAX40; not shown: glutathione S-transferase encoded by vector pGEX-3X (Pharmacia)
T4 sequence: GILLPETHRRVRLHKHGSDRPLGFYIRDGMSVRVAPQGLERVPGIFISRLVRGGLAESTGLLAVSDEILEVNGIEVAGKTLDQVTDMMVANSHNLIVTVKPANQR

T5: K858 PDZ-GST fusion protein (Homo sapiens (Human), UniProt Q8WWI1 1038-1131)
T5 construct: Order of GST and PDZ part and limits not seen in the excerpts
T5 sequence: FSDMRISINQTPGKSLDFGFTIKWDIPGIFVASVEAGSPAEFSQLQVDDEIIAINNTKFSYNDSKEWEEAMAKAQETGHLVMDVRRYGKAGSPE

T6: GST-RGS12 PDZ domain fusion protein (human, UniProt O14924 17-85)
T6 construct: also called human regulator of G-protein signalling 12; not shown: glutathione S-transferase encoded by vector pGEX-3X (Pharmacia)
T6 sequence: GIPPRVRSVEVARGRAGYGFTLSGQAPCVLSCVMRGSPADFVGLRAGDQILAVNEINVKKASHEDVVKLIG

T7: GST-prIL16 fusion protein (PDZ domains 1-2) (Homo sapiens (Human), UniProt Q14005 1111-1324)
T7 construct: also called putative interleukin 16 precursor; not shown: glutathione S-transferase encoded by vector pGEX-3X (Pharmacia)
T7 sequence: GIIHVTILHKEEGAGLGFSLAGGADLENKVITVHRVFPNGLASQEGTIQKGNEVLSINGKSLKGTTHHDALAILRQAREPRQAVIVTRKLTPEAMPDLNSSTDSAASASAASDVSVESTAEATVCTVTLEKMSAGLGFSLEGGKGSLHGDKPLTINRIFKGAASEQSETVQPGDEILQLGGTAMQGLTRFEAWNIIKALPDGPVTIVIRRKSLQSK

T8: GST-AF6 PDZ domain fusion protein (Homo sapiens (Human), UniProt P55196 1001-1093)
T8 construct: also called af-6 protein; not shown: glutathione S-transferase encoded by vector pGEX-3X (Pharmacia)
T8 sequence: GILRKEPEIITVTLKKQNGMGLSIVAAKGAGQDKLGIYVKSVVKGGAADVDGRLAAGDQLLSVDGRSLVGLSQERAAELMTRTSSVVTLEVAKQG

T9: GST-PDZK1 fusion protein (PDZ domains 2-4) (Homo sapiens, UniProt Q5T2W1 134-457)
T9 construct: not shown: glutathione S-transferase encoded by vector pGEX-3X (Pharmacia)
T9 sequence: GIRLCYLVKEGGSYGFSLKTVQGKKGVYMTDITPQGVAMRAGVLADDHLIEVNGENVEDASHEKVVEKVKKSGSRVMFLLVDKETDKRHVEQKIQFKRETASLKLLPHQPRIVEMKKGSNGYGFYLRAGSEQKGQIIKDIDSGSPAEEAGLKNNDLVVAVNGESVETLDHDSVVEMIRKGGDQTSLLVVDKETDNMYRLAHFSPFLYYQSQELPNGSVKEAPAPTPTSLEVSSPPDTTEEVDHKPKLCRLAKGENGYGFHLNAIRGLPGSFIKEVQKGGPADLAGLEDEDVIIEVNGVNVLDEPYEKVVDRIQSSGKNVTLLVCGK

T10: X11β PDZ-GST fusion protein (Rattus norvegicus (Rat), UniProt O35431 560-745)
T10 construct: Order of GST and PDZ part and limits not seen in the excerpts
T10 chain: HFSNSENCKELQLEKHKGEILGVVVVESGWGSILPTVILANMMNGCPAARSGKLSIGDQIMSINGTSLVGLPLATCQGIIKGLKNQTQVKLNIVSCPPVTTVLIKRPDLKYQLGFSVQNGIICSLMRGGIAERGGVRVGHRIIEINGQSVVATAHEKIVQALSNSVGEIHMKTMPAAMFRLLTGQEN

T11: GST-MPP1 PDZ domain fusion protein (Homo sapiens (Human), UniProt Q00013 67-152)
T11 construct: also called p55; 55 Kd erythrocyte membrane protein; not shown: glutathione S-transferase encoded by vector pGEX-3X (Pharmacia)
T11 sequence: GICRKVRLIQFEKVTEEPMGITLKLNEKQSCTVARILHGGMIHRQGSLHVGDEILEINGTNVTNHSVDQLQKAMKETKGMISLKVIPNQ

T12: GST-LIM protein PDZ domain fusion protein (Human, UniProt Q96HC4 2-85)
T12 construct: also called Human LIM protein; not shown: glutathione S-transferase encoded by vector pGEX-3X (Pharmacia)
T12 sequence: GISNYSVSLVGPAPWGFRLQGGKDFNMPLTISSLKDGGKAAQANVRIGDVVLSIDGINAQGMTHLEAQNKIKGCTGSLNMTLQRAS

B1: CD138 C-terminal peptide AA18L, biotinylated (peptide)
peptide: Biotin-PKQANGGAYQKPTKQEEFYA
notes: also called CD138 (syndecan-1); CD138 (syndecan)

What follows are binders tested against T1, ConEn PDZ-GST fusion protein (assay: A/G assays).
Biotin-PYGTAMEKAQLKPPATSDA (also called CD49E (alpha-4)) [CD49E C-terminal peptide AA11L, biotinylated]: no binding. B1: no binding. Biotin-KDITSDSENSNFRNEIQSLV (also called CD95 (Apo-1/Fas); AAI3L) [CD95 (Fas) C-terminal peptide AA13L, biotinylated]: no binding. Biotin-SVFSIPTLWSPWPPSSSSQL (also called CD3η; CD3-eta) [CD3n C-terminal peptide AA4L, biotinylated]: no binding.

Biological target: T2, GST-TAX-IP2 PDZ domain fusion protein
Assay: A/G assays
Biotin-PYGTAMEKAQLKPPATSDA (also called CD49E (alpha-4)) [CD49E C-terminal peptide AA11L, biotinylated]: no binding. B1: no binding. Biotin-KDITSDSENSNFRNEIQSLV (also called CD95 (Apo-1/Fas); AAI3L) [CD95 (Fas) C-terminal peptide AA13L, biotinylated]: no binding. Biotin-SVFSIPTLWSPWPPSSSSQL (also called CD3η; CD3-eta) [CD3n C-terminal peptide AA4L, biotinylated]: no binding.

The binders below were run against T3, GST-cytohesin binding protein PDZ … (assay: A/G assays).
Biotin-PYGTAMEKAQLKPPATSDA (also called CD49E (alpha-4)) [CD49E C-terminal peptide AA11L, biotinylated]: no binding. B1: no binding. Biotin-KDITSDSENSNFRNEIQSLV (also called CD95 (Apo-1/Fas); AAI3L) [CD95 (Fas) C-terminal peptide AA13L, biotinylated]: no binding. Biotin-SVFSIPTLWSPWPPSSSSQL (also called CD3η; CD3-eta) [CD3n C-terminal peptide AA4L, biotinylated]: no binding.

The binders below were run against T4, GST-TAX-IP40 PDZ domain fusion protein (assay: A/G assays).
Biotin-PYGTAMEKAQLKPPATSDA (also called CD49E (alpha-4)) [CD49E C-terminal peptide AA11L, biotinylated]: no binding. B1: no binding. Biotin-KDITSDSENSNFRNEIQSLV (also called CD95 (Apo-1/Fas); AAI3L) [CD95 (Fas) C-terminal peptide AA13L, biotinylated]: no binding. Biotin-SVFSIPTLWSPWPPSSSSQL (also called CD3η; CD3-eta) [CD3n C-terminal peptide AA4L, biotinylated]: no binding.

These binders were tested against T13, NSP PDZ-GST fusion protein (Homo sapiens (Human), UniProt Q92743 370-466) (assay: A/G assays).
T13 construct: The label NSP is not explained in the excerpts
T13 sequence (Q92743 other isoform, or with tags, fused parts or gaps limits assumed): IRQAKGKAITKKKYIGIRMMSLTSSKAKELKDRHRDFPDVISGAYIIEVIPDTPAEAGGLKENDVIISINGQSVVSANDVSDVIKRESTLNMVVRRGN
Biotin-PYGTAMEKAQLKPPATSDA (also called CD49E (alpha-4)) [CD49E C-terminal peptide AA11L, biotinylated]: no binding. B1: no binding. Biotin-KDITSDSENSNFRNEIQSLV (also called CD95 (Apo-1/Fas); AAI3L) [CD95 (Fas) C-terminal peptide AA13L, biotinylated]: no binding. Biotin-SVFSIPTLWSPWPPSSSSQL (also called CD3η; CD3-eta) [CD3n C-terminal peptide AA4L, biotinylated]: no binding.

The binders below were run against T5, K858 PDZ-GST fusion protein (assay: A/G assays).
Biotin-PYGTAMEKAQLKPPATSDA (also called CD49E (alpha-4)) [CD49E C-terminal peptide AA11L, biotinylated]: no binding. B1: no binding. Biotin-KDITSDSENSNFRNEIQSLV (also called CD95 (Apo-1/Fas); AAI3L) [CD95 (Fas) C-terminal peptide AA13L, biotinylated]: no binding. Biotin-SVFSIPTLWSPWPPSSSSQL (also called CD3η; CD3-eta) [CD3n C-terminal peptide AA4L, biotinylated]: no binding.

The binders below were run against T6, GST-RGS12 PDZ domain fusion protein (assay: A/G assays).
Biotin-PYGTAMEKAQLKPPATSDA (also called CD49E (alpha-4)) [CD49E C-terminal peptide AA11L, biotinylated]: no binding. B1: no binding. Biotin-KDITSDSENSNFRNEIQSLV (also called CD95 (Apo-1/Fas); AAI3L) [CD95 (Fas) C-terminal peptide AA13L, biotinylated]: no binding. Biotin-SVFSIPTLWSPWPPSSSSQL (also called CD3η; CD3-eta) [CD3n C-terminal peptide AA4L, biotinylated]: no binding.

These binders were tested against T7, GST-prIL16 fusion protein (PDZ domains …) (assay: A/G assays).
Biotin-PYGTAMEKAQLKPPATSDA (also called CD49E (alpha-4)) [CD49E C-terminal peptide AA11L, biotinylated]: no binding. B1: no binding. Biotin-KDITSDSENSNFRNEIQSLV (also called CD95 (Apo-1/Fas); AAI3L) [CD95 (Fas) C-terminal peptide AA13L, biotinylated]: no binding. Biotin-SVFSIPTLWSPWPPSSSSQL (also called CD3η; CD3-eta) [CD3n C-terminal peptide AA4L, biotinylated]: no binding.

What follows are binders tested against T8, GST-AF6 PDZ domain fusion protein (assay: A/G assays).
Biotin-PYGTAMEKAQLKPPATSDA (also called CD49E (alpha-4)) [CD49E C-terminal peptide AA11L, biotinylated]: no binding. B1: no binding. Biotin-KDITSDSENSNFRNEIQSLV (also called CD95 (Apo-1/Fas); AAI3L) [CD95 (Fas) C-terminal peptide AA13L, biotinylated]: no binding. Biotin-SVFSIPTLWSPWPPSSSSQL (also called CD3η; CD3-eta) [CD3n C-terminal peptide AA4L, biotinylated]: no binding.

Each binder was assayed against T14, GST-TIAM1 PDZ domain fusion protein (Homo sapiens (Human), UniProt Q13009 845-931) (assay: A/G assays).
T14 construct: also called TLAM1; T-lymphoma invasion and metastasis inducing protein 1; not shown: glutathione S-transferase encoded by vector pGEX-3X (Pharmacia)
T14 sequence (Q13009 other isoform, or with tags, fused parts or gaps): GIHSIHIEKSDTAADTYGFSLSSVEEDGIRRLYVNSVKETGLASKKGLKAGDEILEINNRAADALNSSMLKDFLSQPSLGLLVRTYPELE
Biotin-PYGTAMEKAQLKPPATSDA (also called CD49E (alpha-4)) [CD49E C-terminal peptide AA11L, biotinylated]: no binding. Biotin-KDITSDSENSNFRNEIQSLV (also called CD95 (Apo-1/Fas); AAI3L) [CD95 (Fas) C-terminal peptide AA13L, biotinylated]: no binding. Biotin-SVFSIPTLWSPWPPSSSSQL (also called CD3η; CD3-eta) [CD3n C-terminal peptide AA4L, biotinylated]: no binding.

The binders below were run against T9, GST-PDZK1 fusion protein (PDZ domains …) (assay: A/G assays).
Biotin-PYGTAMEKAQLKPPATSDA (also called CD49E (alpha-4)) [CD49E C-terminal peptide AA11L, biotinylated]: no binding. B1: no binding. Biotin-KDITSDSENSNFRNEIQSLV (also called CD95 (Apo-1/Fas); AAI3L) [CD95 (Fas) C-terminal peptide AA13L, biotinylated]: no binding. Biotin-SVFSIPTLWSPWPPSSSSQL (also called CD3η; CD3-eta) [CD3n C-terminal peptide AA4L, biotinylated]: no binding.

Biological target: T10, X11β PDZ-GST fusion protein
Assay: A/G assays
Biotin-PYGTAMEKAQLKPPATSDA (also called CD49E (alpha-4)) [CD49E C-terminal peptide AA11L, biotinylated]: no binding. B1: no binding. Biotin-KDITSDSENSNFRNEIQSLV (also called CD95 (Apo-1/Fas); AAI3L) [CD95 (Fas) C-terminal peptide AA13L, biotinylated]: no binding. Biotin-SVFSIPTLWSPWPPSSSSQL (also called CD3η; CD3-eta) [CD3n C-terminal peptide AA4L, biotinylated]: no binding.

Each binder was assayed against T11, GST-MPP1 PDZ domain fusion protein (assay: A/G assays).
Biotin-PYGTAMEKAQLKPPATSDA (also called CD49E (alpha-4)) [CD49E C-terminal peptide AA11L, biotinylated]: no binding. B1: no binding. Biotin-KDITSDSENSNFRNEIQSLV (also called CD95 (Apo-1/Fas); AAI3L) [CD95 (Fas) C-terminal peptide AA13L, biotinylated]: no binding. Biotin-SVFSIPTLWSPWPPSSSSQL (also called CD3η; CD3-eta) [CD3n C-terminal peptide AA4L, biotinylated]: no binding.

These binders were tested against T12, GST-LIM protein PDZ domain fusion … (assay: A/G assays).
Biotin-PYGTAMEKAQLKPPATSDA (also called CD49E (alpha-4)) [CD49E C-terminal peptide AA11L, biotinylated]: no binding. B1: no binding. Biotin-KDITSDSENSNFRNEIQSLV (also called CD95 (Apo-1/Fas); AAI3L) [CD95 (Fas) C-terminal peptide AA13L, biotinylated]: no binding. Biotin-SVFSIPTLWSPWPPSSSSQL (also called CD3η; CD3-eta) [CD3n C-terminal peptide AA4L, biotinylated]: no binding.
